This series in a line: yeast display, Sf9 membrane polyspecificity reagent, FACS + sequencing; frameworks hold sequencing errors. The method, boiled down: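 Sorting gates, low and high (top ~1%), were placed on anti-HA fluorescence to track expression and on streptavidin fluorescence to track reagent binding. A clone's polyreactivity label is taken from the gate it came out of. The reagent was 10% biotinylated, detergent-solubilized Sf9 membrane, applied for 1 hour at 4 °C to galactose-induced yeast display cells.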
As to “QVQLVESGGGLVQAGGSLRLSCAASGNIFDEYTMGWYRQAPGKERELVAAINSGGSTDYADSVKGRFTISRDNAKNTVYLQMNSLKPEDTAVYYCARDVWPTKIQLQPGYGRGEYWGQGTQVTVSS”, the “polyreactivity (PSR sort gate)” value is recorded as “low polyreactivity”.

For the sequence “QVQLVESGGGLVQAGGSLRLSCAASGNIFDEYTMGWYRQAPGKERELVAAISWRGGSTYYADSVKGRFTISRDNAKNTVYLQMNSLKPEDTAVYYCNKAYPADYDYWGQGTQVTVSS”, the “polyreactivity (PSR sort gate)” value was “low polyreactivity”.

As for “QVQLVESGGGLVQAGGSLRLSCAASGNIFDEYTMGWYRQAPGKERELVAGISWSGSHTYYADSVKGRFTISRDNAKNTVYLQMNSLKPEDTAVYYCIADSYPDYTGPGLDWYDYWGQGTQVTVSS”, the “polyreactivity (PSR sort gate)” value was “low polyreactivity”. For “QVQLVESGGGLVQAGGSLRLSCAASGNIFDGYAMGWYRQAPGKERELVAAISLSGGSTNYADSVKGRFTISRDNAKNTVYLQMNSLKPEDTAVYYCNARNWYYEGDYWGQGTQVTVSS”, the “polyreactivity (PSR sort gate)” value is listed as “high polyreactivity”. With “QVQLVESGGGLVQAGGSLRLSCAASGNIFDHYAMGWYRQAPGKEREMVAAISSGGSTSYADSVKGRFTITRDNAKTTVYVQMNCLKPEDTAVYYCAAESFVQYKSPKWVHRYDSWGQGTQVTVSS”, the “polyreactivity (PSR sort gate)” value is reported as “low polyreactivity”.

Consider “QVQLVESGGGLVQAGGSLRLSCAASGNIFDRNAMGWYRHAPGKESELVAAISRSGGRTYYADSVKGRFTISRDNAKNTVYLQMNSLKPEDTAVYYCNRRYRNYSSAKYDYWGQGTQVTVSS”, for which the “polyreactivity (PSR sort gate)” value was “high polyreactivity”. For “QVQLVESGGGLVQAGGSLRLSCAASGNIFDSYAMGWYRQAPGKERELVAAISFSGGNTYYADSVKGRFTISRDNAKNTVYLQMNSLKPEDTAVYYCAADYFAVTPYRAADVAEDYWGQGTQVTVSS”, the “polyreactivity (PSR sort gate)” value was “low polyreactivity”. For the sequence “QVQLVESGGGLVQAGGSLRLSCAASGNIFDTYVMGWYRQAPGKERELVAAITSDGGTYYADSVKGRFTISRDNAKNTVYLQMNSLKPEDTAVYYCAADTYYYPIHDYWGQGTQVTVSS”, the “polyreactivity (PSR sort gate)” value is “low polyreactivity”. Turning to “QVQLVESGGGLVQAGGSLRLSCAASGNIFESYCMGWYRQAPGKERELVATINTSSGSTYYADSVKGRFTISRDTAKNTVYLQMNSLKPEDTAVYYCAAEWYPYPWGYGYWGQGTQVTVSS”, the “polyreactivity (PSR sort gate)” value is reported as “low polyreactivity”. For the sequence “QVQLVESGGGLVQAGGSLRLSCAASGNIFESYGMGWYRQAPGKERELVATINTSSGSTYYADSVKGRFTISRDNAKNSVYVQMNSLKPEDTAVYYCAAEWYPYPWGYGYWGQGTQVTVSS”, the “polyreactivity (PSR sort gate)” value is “low polyreactivity”. Take “QVQLVESGGGLVQAGGSLRLSCAASGNIFGDNAMGWYRQAPGKERELVAAITRIDGNTYYADSVKGRFTISRDNAKNTVYLQMNSLKPEDTAVYYCATDEPVGRYQHNYYWGQGSQVTVSS”: the “polyreactivity (PSR sort gate)” value was “low polyreactivity”. For the sequence “QVQLVESGGGLVQAGGSLRLSCAASGNIFGFYTMGWNRQAPGKERELVAAIRSRGGSTNYADSVKGRFTISRDTAKNTVYLQMNSLKPEDTAVYYCNKDGTWLARAVTYADFDYWGQGTQVTVSS”, the “polyreactivity (PSR sort gate)” value is “low polyreactivity”. As to “QVQLVESGGGLVQAGGSLRLSCAASGNIFGIYAMGWYRQAPGKERELVAAIRGRGASTYYADSVKGRFTISRDNAKNTVYLQMNSLKPEDTAVYYCAVDVPLSRYWWRRTYDYWGQGTQVTVSS”, the “polyreactivity (PSR sort gate)” value was “low polyreactivity”. “QVQLVESGGGLVQAGGSLRLSCAASGNIFGKNVMGWYRQAPGKEREFVAAITSRGGRTNYADSVKGRFTISRDNAKNTVYLQMNSLKPEDTAVYYCATRYKSPSFDYWGQGTQVTVSS”: the “polyreactivity (PSR sort gate)” value is “high polyreactivity”. Turning to “QVQLVESGGGLVQAGGSLRLSCAASGNIFGVYAMGWYRQAPGKERELVAAITSGGTSTSYADSVKGRFTISRDNAKNTVYLQINSLKPEDTAVYYCATESSGKLSEYAYWGQGTQVTVSS”, the “polyreactivity (PSR sort gate)” value is “low polyreactivity”. As for “QVQLVESGGGLVQAGGSLRLSCAASGNIFGYYVMGWYRQAPGKERELVAGISSGDSTDYADSVKGRFTISRDNAKNTVYLQMNSLKPEDTAVYYCNADWNPTERWFYWYTPLGYDYWGQGTQVTVSS”, the “polyreactivity (PSR sort gate)” value is on record as “low polyreactivity”. With “QVQLVESGGGLVQAGGSLRLSCAASGNIFITNAMGWYRQAPGKERELVADISFSGGSTNYADSVKGRFTISRDNAKNTVYLQMNSLKPEDTAVYYCAARALASVSAHKYDNWGQGTQVTVST”, the “polyreactivity (PSR sort gate)” value is “low polyreactivity”. “QVQLVESGGGLVQAGGSLRLSCAASGNIFIYNAMGWYRQAPGQERELVAAISVSGGDTYYADSVKGRFTISRDNAKNTVYLQMNSLKPEDTAVYYCKASYVLTGQRYGYWGQGTQVTVSS”: the “polyreactivity (PSR sort gate)” value is “low polyreactivity”. Consider “QVQLVESGGGLVQAGGSLRLSCAASGNIFKVNAMGWYRQAPGKERELVAGISWSGGSTYYADSVKGRFTISRDNAKNTVYLQMNSLKPEDTAVYYGNVGRGYWGYLYDYWGQGTQGTVSS”, for which the “polyreactivity (PSR sort gate)” value is “low polyreactivity”.

Turning to “QVQLVESGGGLVQAGGSLRLSCAASGNIFKYYTMRWYRQAPGKERELVAAITSGGRTNYADSVKGRFTISRDNAKNTVYLQMNSLKPEDTAVYYCAAYDVIYSQGFDYWGQGTQVTVSS”, the “polyreactivity (PSR sort gate)” value was “low polyreactivity”. Regarding “QVQLVESGGGLVQAGGSLRLSCAASGNIFLYYAMGWYRQAPGKERELVADIDSSGASTYYADSVKGRFTMSRDNAKNTVYLQMNSLKPEDTAVYYCAAEFHWWYAGYDYGYWGQGTQVTVSS”, the “polyreactivity (PSR sort gate)” value is recorded as “low polyreactivity”. With “QVQLVESGGGLVQAGGSLRLSCAASGNIFNLYAMGWYRQAPGKERELVAAIRGSGSTYYADSVKGRFTISRDNAKNTVYLQMNSLKPEDTAVYYCAAGISGHYYWGQGTQVTVSS” the entry was “high polyreactivity”. “QVQLVESGGGLVQAGGSLRLSCAASGNIFNTYAMGWYRQAPGKERELVAVISSRCGRTYYADSVKGRFTISRENAKNTVYLQMNSLKPEDTAVYYCAAGKHVTFSYEYRMDYWGVGTQVTVSS”: the “polyreactivity (PSR sort gate)” value is on record as “low polyreactivity”. In the case of “QVQLVESGGGLVQAGGSLRLSCAASGNIFPDYAMGWYRQAPGKERELVAAISSSGSSTYYADSVKGRFTISRDNAKNTVYLQMNSLKKEDTAVYYCATRVYLPTFYIRDTQYYYWGQGTQVTVSS”, the “polyreactivity (PSR sort gate)” value is listed as “low polyreactivity”. With “QVQLVESGGGLVQAGGSLRLSCAASGNIFPMNAMGWYIEAPGKERELVAAISYSGTSTYYADSVKGRFTISRDKAKNTVYLQMNSLKPEDTAVYYCAARVQRLNLGDYNYWGQGTQVTVSS”, the “polyreactivity (PSR sort gate)” value is reported as “low polyreactivity”.

On to “QVQLVESGGGLVQAGGSLRLSCAASGNIFPRYAMGWYRQAPGKERELVARISSGGSTDYADSVKGRFTISRDNAKNTVYLQMNSLKPEDTAVYYCAAEYYSQTVNYRRVVGYGYWGQGTQVTVSS”, for which the “polyreactivity (PSR sort gate)” value is “high polyreactivity”. Regarding “QVQLVESGGGLVQAGGSLRLSCAASGNIFPYYTLGWYRKAPGKEREWVAAITIGGSTYYADSEKGRFTISRDNAKNTVYLQMNSLKPEDTAVYYCAARSRYYDTRFEYWGQGTQVTVSS”, the “polyreactivity (PSR sort gate)” value is recorded as “low polyreactivity”. With “QVQLVESGGGLVQAGGSLRLSCAASGNIFPYYTMGWYRQAPGKERELVAAISSSGSTYYADSVKGRFTISRDNAKNTVYLQMNSLKPEDTAVYYCAARLYPYGWYDYWGQGTQVTVSS” the entry was “high polyreactivity”; with “QVQLVESGGGLVQAGGSLRLSCAASGNIFRRYAMGWYREAPGKERELVAAISRGGTRTYYADSVKGRFTISRDNAKNTVYLQMNSLKPEDTAVYYCNAEVNTNYRIADYDYWGQGTQVTVSS”, “high polyreactivity”. Consider “QVQLVESGGGLVQAGGSLRLSCAASGNIFRVYDMGWYRQAPGKERELVPVIRWSSGRTYYADSVKGRFTISRDNAKNTVYLQMNSLKPEDTAVYYCATKLWRVPRNSHYDSYEYWGQGTQVTVSS”, for which the “polyreactivity (PSR sort gate)” value is recorded as “high polyreactivity”.

The record behind these values is the nanobody polyreactivity screen of Harvey et al. (2022).
